# Assay results taken from PMC9352680, “A comprehensive thermodynamic model for RNA binding by the Saccharomyces cerevisiae Pumilio protein PUF4”.
# Positions count from the first letter of the chain named. Numbers in names are those of the source.
# T1: PUF4 RNA-binding domain (Saccharomyces cerevisiae, UniProt P25339 537-888)
# T1 sequence: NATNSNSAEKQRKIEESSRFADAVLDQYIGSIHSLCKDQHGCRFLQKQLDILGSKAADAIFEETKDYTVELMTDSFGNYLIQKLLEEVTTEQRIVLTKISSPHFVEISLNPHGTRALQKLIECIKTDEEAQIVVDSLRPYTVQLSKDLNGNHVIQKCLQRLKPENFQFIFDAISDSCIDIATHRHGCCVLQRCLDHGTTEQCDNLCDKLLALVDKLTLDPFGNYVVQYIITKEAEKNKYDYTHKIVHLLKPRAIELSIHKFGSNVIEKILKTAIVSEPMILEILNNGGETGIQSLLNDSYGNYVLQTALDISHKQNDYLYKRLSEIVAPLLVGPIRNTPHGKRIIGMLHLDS
# B1: Id_ii_S4_P4E.2_K4.1_C4.2_[T-1G]_H4.1_A4.1_F4.1_T4.2_[G10A]_[T11G] (ssRNA)
# RNA: UUUGACAACUGAUCGUUCUUUCUCGUGUAUAUUAAGUUCUUUCUCGAUCAGUUGUCUUU
# B2: Id_ii_S4_P4E.3_K4.2_C4.2_[C-2A]_H4.2_A4.1_F4.1_T4.2_[G10C]_[T11A] (ssRNA)
# RNA: B1 RNA with C24A, G25U, G27A, A35C, G36A
# B3: Id_ii_S4_P4E.3_K4.2_C4.2_[T-1G]_H4.2_A4.1_F4.1_T4.2_[G10T]_[T11C] (ssRNA)
# RNA: B1 RNA with G27A, A35U, G36C
# B4: Id_ii_S4_P4E.3_K4.2_C4.2_[T-1C]_H4.2_A4.1_F4.1_T4.2_[G10A] (ssRNA)
# RNA: B1 RNA with G25C, G27A, G36U
# B5: Id_ii_S4_P4E.3_K4.2_C4.2_[C-2T]_[T-1G]_H4.2_A4.1_F4.1_T4.2_[G10A]_[T11C] (ssRNA)
# RNA: B1 RNA with C24U, G27A, G36C
# B6: Id_ii_S4_P4E.3_K4.2_C4.2_[C-2A]_[T-1C]_H4.2_A4.1_F4.1_T4.2_[G10T]_[T11A] (ssRNA)
# RNA: B1 RNA with C24A, G25C, G27A, A35U, G36A
# B7: Id_ii_S4_P4E.3_K4.2_C4.2_[C-2T]_[T-1C]_H4.2_A4.1_F4.1_T4.2_[G10T]_[T11C] (ssRNA)
# RNA: B1 RNA with C24U, G25C, G27A, A35U, G36C
# B8: Id_ii_S4_P4E.3_K4.2_C4.2_H4.2_A4.1_F4.1_T4.2_[G10C] (ssRNA)
# RNA: B1 RNA with G25U, G27A, A35C, G36U
# B9: Id_ii_S4_P4E.3_K4.2_C4.2_[C-2T]_[T-1C]_H4.2_A4.1_F4.1_T4.2_[G10A] (ssRNA)
# RNA: B1 RNA with C24U, G25C, G27A, G36U
# B10: Id_ii_S4_P4E.2_K4.1_C4.2_[T-1C]_H4.1_A4.1_F4.1_T4.2_[G10T]_[T11C] (ssRNA)
# RNA: B1 RNA with G25C, A35U, G36C
# B11: Id_ii_S4_P4E.3_K4.2_C4.2_[C-2A]_[T-1A]_H4.2_A4.1_F4.1_T4.2_[G10C]_[T11C] (ssRNA)
# RNA: B1 RNA with C24A, G25A, G27A, A35C, G36C
# B12: Id_ii_S4_P4E.3_K4.2_C4.2_[C-2T]_H4.2_A4.1_F4.1_T4.2_[G10C]_[T11C] (ssRNA)
# RNA: B1 RNA with C24U, G25U, G27A, A35C, G36C
# B13: Id_ii_S4_P4E.3_K4.2_C4.2_[T-1C]_H4.2_A4.1_F4.1_T4.2_[G10C]_[T11G] (ssRNA)
# RNA: B1 RNA with G25C, G27A, A35C
# B14: Id_ii_S4_P4E.3_K4.2_C4.2_[C-2T]_H4.2_A4.1_F4.1_T4.2_[G10T]_[T11A] (ssRNA)
# RNA: B1 RNA with C24U, G25U, G27A, A35U, G36A
# B15: Id_ii_S4_P4E.3_K4.2_C4.2_[C-2T]_[T-1C]_H4.2_A4.1_F4.1_T4.2_[G10C]_[T11A] (ssRNA)
# RNA: B1 RNA with C24U, G25C, G27A, A35C, G36A
# B16: Id_ii_S4_P4E.3_K4.2_C4.2_[C-2T]_[T-1G]_H4.2_A4.1_F4.1_T4.2_[G10T]_[T11C] (ssRNA)
# RNA: B1 RNA with C24U, G27A, A35U, G36C
# B17: Id_ii_S4_P4E.2_K4.1_C4.2_[T-1G]_H4.1_A4.1_F4.1_T4.2 (ssRNA)
# RNA: B1 RNA with A35G, G36U
# B18: Id_ii_S4_P4E.2_K4.1_C4.2_[T-1A]_H4.1_A4.1_F4.1_T4.2_[G10A] (ssRNA)
# RNA: B1 RNA with G25A, G36U
# B19: Id_ii_S4_P4E.3_K4.2_C4.2_[C-2G]_H4.2_A4.1_F4.1_T4.2_[G10C] (ssRNA)
# RNA: B1 RNA with C24G, G25U, G27A, A35C, G36U
# B20: Id_ii_S4_P4E.2_K4.1_C4.2_[T-1A]_H4.1_A4.1_F4.1_T4.2_[T11G] (ssRNA)
# RNA: B1 RNA with G25A, A35G
# B21: Id_ii_S4_P4E.3_K4.2_C4.2_[C-2G]_H4.2_A4.1_F4.1_T4.2_[G10A] (ssRNA)
# RNA: B1 RNA with C24G, G25U, G27A, G36U
# B22: Id_ii_S4_P4E.2_K4.1_C4.2_[T-1C]_H4.1_A4.1_F4.1_T4.2_[G10A]_[T11A] (ssRNA)
# RNA: B1 RNA with G25C, G36A
# B23: Id_ii_S4_P4E.3_K4.2_C4.2_[C-2G]_[T-1C]_H4.2_A4.1_F4.1_T4.2_[G10T]_[T11C] (ssRNA)
# RNA: B1 RNA with C24G, G25C, G27A, A35U, G36C
# B24: Id_ii_S4_P4E.3_K4.2_C4.2_[T-1A]_H4.2_A4.1_F4.1_T4.2_[G10C]_[T11A] (ssRNA)
# RNA: B1 RNA with G25A, G27A, A35C, G36A
# B25: Id_ii_S4_P4E.3_K4.2_C4.2_[C-2T]_H4.2_A4.1_F4.1_T4.2_[G10C]_[T11G] (ssRNA)
# RNA: B1 RNA with C24U, G25U, G27A, A35C
# B26: Id_ii_S4_P4E.4_K4.3_C4.2_[C-2G]_[T-1C]_H4.3_A4.1_F4.1_T4.2_[G10C]_[T11G] (ssRNA)
# RNA: B1 RNA with C24G, G25C, U26A, G27C, U28A, A29C, A35C
# B27: Id_ii_S4_P4E.3_K4.2_C4.2_[C-2A]_[T-1C]_H4.2_A4.1_F4.1_T4.2_[G10T]_[T11C] (ssRNA)
# RNA: B1 RNA with C24A, G25C, G27A, A35U, G36C
# B28: Id_ii_S4_P4E.3_K4.2_C4.2_[C-2T]_[T-1G]_H4.2_A4.1_F4.1_T4.2_[G10T] (ssRNA)
# RNA: B1 RNA with C24U, G27A, A35U, G36U
# B29: Id_ii_S4_P4E.2_K4.1_C4.2_H4.1_A4.1_F4.1_T4.2_[G10A] (ssRNA)
# RNA: B1 RNA with G25U, G36U
# B30: Id_ii_S4_P4E.3_K4.2_C4.2_[C-2A]_[T-1A]_H4.2_A4.1_F4.1_T4.2_[G10C]_[T11G] (ssRNA)
# RNA: B1 RNA with C24A, G25A, G27A, A35C
# B31: Id_ii_S4_P4E.3_K4.2_C4.2_[T-1G]_H4.2_A4.1_F4.1_T4.2_[G10A] (ssRNA)
# RNA: B1 RNA with G27A, G36U
# B32: Id_ii_S4_P4E.2_K4.1_C4.2_[T-1C]_H4.1_A4.1_F4.1_T4.2_[G10T]_[T11G] (ssRNA)
# RNA: B1 RNA with G25C, A35U
# B33: Id_ii_S4_P4E.2_K4.1_C4.2_H4.1_A4.1_F4.1_T4.2_[G10T] (ssRNA)
# RNA: B1 RNA with G25U, A35U, G36U
# B34: Id_ii_S4_P4E.3_K4.2_C4.2_[C-2T]_[T-1C]_H4.2_A4.1_F4.1_T4.2_[G10T]_[T11A] (ssRNA)
# RNA: B1 RNA with C24U, G25C, G27A, A35U, G36A
# B35: Id_ii_S4_P4E.3_K4.2_C4.2_[C-2G]_H4.2_A4.1_F4.1_T4.2_[G10T] (ssRNA)
# RNA: B1 RNA with C24G, G25U, G27A, A35U, G36U
# B36: Id_ii_S4_P4E.3_K4.2_C4.2_H4.2_A4.1_F4.1_T4.2_[T11C] (ssRNA)
# RNA: B1 RNA with G25U, G27A, A35G, G36C
# B37: Id_ii_S4_P4E.3_K4.2_C4.2_[C-2T]_[T-1A]_H4.2_A4.1_F4.1_T4.2_[G10A]_[T11A] (ssRNA)
# RNA: B1 RNA with C24U, G25A, G27A, G36A
# B38: Id_ii_S4_P4E.3_K4.2_C4.2_H4.2_A4.1_F4.1_T4.2_[G10T]_[T11C] (ssRNA)
# RNA: B1 RNA with G25U, G27A, A35U, G36C
# B39: Id_ii_S4_P4E.3_K4.2_C4.2_[C-2T]_[T-1A]_H4.2_A4.1_F4.1_T4.2_[G10C]_[T11G] (ssRNA)
# RNA: B1 RNA with C24U, G25A, G27A, A35C
# B40: Id_ii_S4_P4E.3_K4.2_C4.2_H4.2_A4.1_F4.1_T4.2_[G10A] (ssRNA)
# RNA: B1 RNA with G25U, G27A, G36U
# B41: Id_ii_S4_P4E.3_K4.2_C4.2_[C-2T]_H4.2_A4.1_F4.1_T4.2_[G10T]_[T11G] (ssRNA)
# RNA: B1 RNA with C24U, G25U, G27A, A35U
# B42: Id_ii_S4_P4E.3_K4.2_C4.2_H4.2_A4.1_F4.1_T4.2_[G10A]_[T11C] (ssRNA)
# RNA: B1 RNA with G25U, G27A, G36C
# B43: Id_ii_S4_P4E.3_K4.2_C4.2_[C-2A]_[T-1A]_H4.2_A4.1_F4.1_T4.2_[G10T]_[T11C] (ssRNA)
# RNA: B1 RNA with C24A, G25A, G27A, A35U, G36C
# B44: Id_ii_S4_P4E.3_K4.2_C4.2_[C-2G]_[T-1G]_H4.2_A4.1_F4.1_T4.2_[G10A] (ssRNA)
# RNA: B1 RNA with C24G, G27A, G36U
# B45: If_S4_P4E.3_K4.2_C4.2_H4.2_A4.1_F4.1_T4.2 (ssRNA)
# RNA: B1 RNA with G25U, G27A, A35G, G36U
# B46: Id_ii_S4_P4E.2_K4.1_C4.2_H4.1_A4.1_F4.1_T4.2_[G10A]_[T11A] (ssRNA)
# RNA: B1 RNA with G25U, G36A
# B47: Id_ii_S4_P4E.2_K4.1_C4.2_H4.1_A4.1_F4.1_T4.2_[G10C] (ssRNA)
# RNA: B1 RNA with G25U, A35C, G36U
# B48: Id_ii_S4_P4E.3_K4.2_C4.2_[T-1G]_H4.2_A4.1_F4.1_T4.2 (ssRNA)
# RNA: B1 RNA with G27A, A35G, G36U
# B49: Id_ii_S4_P4E.4_K4.3_C4.2_[C-2G]_[T-1C]_H4.3_A4.1_F4.1_T4.2_[G10T]_[T11A] (ssRNA)
# RNA: UUUGACAACUGAUCGUUCUUUCUGCACACUAUUAUAUUCUUUCUCGAUCAGUUGUCUUU
# Molecular target: T1, PUF4 RNA-binding domain
# Assay: Mg; RNA-MaP; 20 mM Na-HEPES pH 7.4, 30 mM KOAc, 0.75 mM MgCl2, 0.1% Tween-20, 5% glycerol, 0.1 mg/mL BSA, 2 mM DTT; 25 C; 0.0125-409.6 nM protein
# Details: tags: N-His6-TEV cleaved; C-SNAP kept, Cy3B-labelled; label: tethered on chip by stalled RNA polymerase
row,Binder,Kd [nM]
1,B1,1.39
2,B2,12.2
3,B3,13.1
4,B4,4.86
5,B5,3.87
6,B6,24.6
7,B7,5.07
8,B8,5.15
9,B9,10.2
10,B10,0.317
11,B11,47.7
12,B12,9.36
13,B13,9.21
14,B14,25.9
15,B15,12.6
16,B16,3.99
17,B17,0.364
18,B18,0.453
19,B19,38.1
20,B20,1.11
21,B21,62
22,B22,0.435
23,B23,19.6
24,B24,23
25,B25,10.1
26,B26,2000
27,B27,6.68

row,Binder,Kd [nM]
1,B28,1.83
2,B29,0.324
3,B30,189
4,B31,12.4
5,B32,0.173
6,B33,0.116
7,B34,12
8,B35,10.6
9,B36,5.07
10,B37,42
11,B38,6.46
12,B39,28.4
13,B40,10.8
14,B41,8.62
15,B42,15.9
16,B43,39.7
17,B44,125
18,B45,8.97
19,B46,0.422
20,B47,0.434
21,B48,8.91
22,UCUCUUUGUAUAAUUAUCUCUU (ssRNA) [Ia_S1_P5E.1_K5.1_C5.1_H5.1_A5.1_[T6A]_F5.1_T5.1],5.23
23,UCUCUUUCUAUUUUUAUCUCUU (ssRNA) [Ib_S1_P5E.1_K5.1_C5.1_H5.1_[G2C]_A5.1_[A7T]_F5.1_T5.1],> 2300
24,UCUCUUUAUAUAAUUAUCUCUU (ssRNA) [Ib_S1_P5E.1_K5.1_C5.1_H5.1_[G2A]_A5.1_[T6A]_F5.1_T5.1],1010
25,UCUCUUUUUAUUCUUAUCUCUU (ssRNA) [Ib_S1_P5E.1_K5.1_C5.1_H5.1_[G2T]_A5.1_[A7C]_F5.1_T5.1],> 2300
26,UCUCUUUUUAUUUUUAUCUCUU (ssRNA) [Ib_S1_P5E.1_K5.1_C5.1_H5.1_[G2T]_A5.1_[A7T]_F5.1_T5.1],> 2300
27,B49,28.5
